The values below come from US20210301012A1 (UCB, published 2021).

Substitutions are numbered along the chain they refer to. Names and notes keep the numbering of the source.

To fix the notation:
B1: VHH6 (VHH)
VHH: DVQFVESGGGSVHAGGSLRLNCATSGYIYSTYCMGWFRQAPGKEREGVAHIYTNSGRTYYADSVKGRFTISQDNAKNTVYLQMNSLKPEDTAIYYCAARPSIRCASFSATEYKDWGQGTQVTVSS
notes: Camel single domain antibody expressed in Expi-HEK cells; The His tag was used for capture in Octet and in the NTA-chip SPR; also called wtVHH6; VHH6-6His; not shown: C-terminal TEV site and 6His tag (VHH6-6His)
B2: VHH6 K113A (VHH)
VHH: B1 VHH with K113A
notes: Tested as ExpiHEK supernatant; not shown: C-terminal His tag (captured on NTA chip)
B3: VHH6 Y27A (VHH)
VHH: B1 VHH with Y27A
notes: as for B2
B4: VHH6 Y32A (VHH)
VHH: B1 VHH with Y32A
notes: as for B2
B5: VHH6 K113A S101A (VHH)
VHH: B1 VHH with S101A, K113A
notes: Tested as ExpiHEK supernatant; also called Ser101Ala/Lys113Ala; 113/101 double mutant; not shown: C-terminal His tag (captured on NTA chip)
B6: VHH6 Y27A Y32A (VHH)
VHH: B1 VHH with Y27A, Y32A
notes: Tested as ExpiHEK supernatant; also called 27/32 double mutant; not shown: C-terminal His tag (captured on NTA chip)
B7: VHH6 N74A S101A (VHH)
VHH: B1 VHH with N74A, S101A
notes: Tested as ExpiHEK supernatant; also called Asn74Ala/Ser101Ala; 74/101 double mutant; not shown: C-terminal His tag (captured on NTA chip)
B8: VHH6 S101A (VHH)
VHH: B1 VHH with S101A
notes: as for B2
B9: VHH6 K113S S101A (VHH)
VHH: B1 VHH with S101A, K113S
notes: The text describes only alanine substitutions; not shown: C-terminal His tag (captured on NTA chip)
B10: VHH6 N74A (VHH)
VHH: B1 VHH with N74A
notes: as for B2
B11: gp80 (receptor, human, UniProt P08887 20-358, looked up)
chain: LAPRRCPAQEVARGVLTSLPGDSVTLTCPGVEPEDNATVHWVLRKPAAGSHPSRWAGMGRRLLLRSVQLHDSGNYSCYRAGRPAGTVHLLVDVPPEEPQLSCFRKSPLSNVVCEWGPRSTPSLTTKAVLLVRKFQNSPAEDFQEPCQYSQESQKFSCQLAVPEGDSSFYIVSMCVASSVGSKFSKTQTFQGCGILQPDPPANITVTAVARNPRWLSVTWQDPHSWNSSFYRLRFELRYRAERSKTFTTWMVKDLQHHCVIHDAWSGLRHVVQLRAQEEFGQGEWSEWSPEAMGTPWTESRSPPAENEVSTPMQALTTNKDDDNILFRDSANATSLPVQD
notes: Soluble gp80 as used in ELISA, MST, Octet, SEC and SPR; In part of the ELISA work the methods name gp80-hscFc (gp80 M1-P322, C211A, C277A, fused to single chain human IgG Fc); also called IL-6 receptor; CD126

The target of test [1] is T1, IL-6-gp80 complex (human, UniProt P05231 28-212; P08887 20-358).
T1 construct: Non-covalent transient heterodimer formed by mixing IL-6 and gp80
Kind of test: SPR (BIAcore 3000), His-tagged VHH captured from supernatant on Ni-NTA chip, equimolar IL-6 + gp80 (50 nM each) injected. The method, then:
(§1) SPR analysis was performed using a BIAcore 3000 (GE Healthcare). […] An equimolar mixture of IL-6 and gp80 (50 nM each) was injected for 300 s at a flow rate of 10 μl/min followed by a dissociation phase of 300 s. At the end of each cycle the chip surface was regenerated by injection of 350 mM EDTA (2×10 μl).
(§2) To assess the contributions of the side chains to binding, single alanine substitutions at positions 27, 32, 74, 101 and 113, and double alanine substitutions at positions 27/32, 74/101 and 113/101 were generated. […] In a three-component system, it is not possible to calculate meaningful association rate constants. However, the dissociation rate constants, being concentration independent, were determined.

Test [2] concerns the target T1, IL-6-gp80 complex. The description is as above. The method, then: as §1, §2
This is another data set of the same source.

Test [3] concerns the target T1, IL-6-gp80 complex. Kind of test: MicroScale Thermophoresis, VHH6 titrated into gp80-NT647 + IL-6 (panel gp80-NT647+IL-6+VHH6). From the text: (§3) (a) ELISA: FusionIL-6, IL-6 or gp80 were immobilized overnight on plates. […] (b) MicroScale Thermophoresis (MST): IL-6 and gp80 were labelled with NT647.
Test [4] addresses T1, IL-6-gp80 complex. Kind of test: SPR (BIAcore T200, 25 C), VHH6 immobilised, IL-6 titrated (0-250 nM) with gp80 constant at 2 uM. As to the method: (§4) Quantitative SPR analysis was carried out using a BIAcore T200 (GE Healthcare). The binding measurements were performed at a flow rate of 100 μl/min. The protein of interest was injected for 180 s and the dissociation was monitored for 360 s. […] The sensor surface was regenerated with […] MgCl₂. Background subtraction binding curves were analyzed using the T200 evaluation software (version 1.0) following standard procedures. Due to the complexity of the interactions studied, the data analysis was limited to the most informative, in this case kd parameter, which was determined by fitting a single exponential decay model to dissociation data within 360 s range.

For test [5], the target named is T2, IL-6 (human, UniProt P05231 28-212).
T2 construct: IL-6 as used in ELISA, MST, Octet, SEC and SPR; also called interleukin-6; hIL-6
Description: ELISA, plate coated with IL-6, absorbance 630 nm. As to the method:
ELISA—IL-6, gp80 and FusionIL-6 used in ELISA to coat plates were diluted to a final concentration of […] in carbonate buffer (0.16% Na₂CO₃ and 0.3% NaHCO₃ in H₂O). Coated plates were incubated at 4° C. overnight. The following day, the plates were washed twice in PBST, blocked in PBS/5% BSA for 2 h at RT, and again washed twice in PBST. For preliminary screening, either supernatant from HEK cells or purified VHHs was added. Anti-llama-HRP or anti-His-HRP antibody was added for 1 h at RT. Afterwards the plates were washed twice with PBST and developed with TMB substrate. The reaction was stopped by adding NaF. […]
On the technique in general: An ELISA detects its analyte on a solid surface through an enzyme-linked reagent.

Test [6] has as its target T1, IL-6-gp80 complex. Description: SPR (BIAcore T200, 25 C), VHH6 immobilised, gp80 titrated (0-250 nM) with IL-6 constant at 2 uM. As to the method:
as §4
In general terms: Surface plasmon resonance follows binding to a sensor surface in real time, without labels.

For the test “gp80”, the target named is B11. Kind of test: ELISA, plate coated with gp80, absorbance 630 nm.
Test [7] deals with T1, IL-6-gp80 complex. Kind of test: MicroScale Thermophoresis, VHH6 titrated into IL-6-NT647 + gp80 (panel IL-6-NT647+gp80+VHH6).
Description: as §3

Test [8] has as its target T1, IL-6-gp80 complex. Kind of test: SPR, VHH captured on Ni-NTA chip, IL-6 + gp80 injected; reference VHH6. As to the method:
as §1, §2

The target in test [9] is T2, IL-6. Kind of test: SPR, IL-6 immobilised, gp80 injected, with VHH6 against without VHH6. From the text: For brevity, FIGS. 10a and b only report the SPR sensorgrams for IL-6 immobilization.

The koff is the first-order rate constant of dissociation. What is called EC50 (read off the curve) is the midpoint of the concentration-response curve. As for B1, the koff with IL-6-gp80 complex [1] is 0.00036 s⁻¹; with IL-6-gp80 complex [2], 0.00036 s⁻¹; in the test with IL-6-gp80 complex [4] it was 0.000309 s⁻¹; with IL-6-gp80 complex [6], 0.000375 s⁻¹. Also, the “EC50 (read off the curve)” value was around 60 nM with IL-6-gp80 complex [3] and around 30 nM with IL-6-gp80 complex [7]. The binding result in the test with IL-6 [5] and with gp80 was “no binding” each time.

In the case of B2, the koff with IL-6-gp80 complex [2] came to 0.00026 s⁻¹.

Take B3: the koff with IL-6-gp80 complex [2] amounted to 0.0007 s⁻¹. Also, in the test with IL-6-gp80 complex [8], the “fold increase of dissociation rate against VHH6” value (shortened to “fold increase”) was 1.9 fold.

Regarding B4, the koff with IL-6-gp80 complex [2] came out at 0.0003 s⁻¹.

Take B5: the koff with IL-6-gp80 complex [1] was found to be 0.00143 s⁻¹. For the same molecule, the “fold increase” value in the test with IL-6-gp80 complex [8] is 4.3 fold.

Consider B6, for which the koff with IL-6-gp80 complex [1] turned out to be 0.00043 s⁻¹.

In the case of B7, in the test with IL-6-gp80 complex [1], the koff amounted to 0.00135 s⁻¹. For the same molecule, in the test with IL-6-gp80 complex [8], the “fold increase” value came to 3.8 fold.

For B8, the koff in the test with IL-6-gp80 complex [2] was found to be 0.00039 s⁻¹.

Take B9: the koff with IL-6-gp80 complex [1] worked out at 0.00164 s⁻¹.

As for B10, in the test with IL-6-gp80 complex [2], the koff came to 0.00015 s⁻¹.

For the molecule B11, in the test with IL-6 [9], the “fold reduction of koff by VHH6” value was found to be 225 fold.
